The experiment addresses T1, NPAS4 170X-Myc/FLAG (c.508C>T nonsense variant) (human, UniProt Q8IUM7-1 1-169).
T1 sequence (looked up): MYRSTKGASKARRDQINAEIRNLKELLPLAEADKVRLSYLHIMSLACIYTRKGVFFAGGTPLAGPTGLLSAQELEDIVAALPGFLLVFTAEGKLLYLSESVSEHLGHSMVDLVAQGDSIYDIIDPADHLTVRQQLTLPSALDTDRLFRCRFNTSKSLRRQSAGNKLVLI
The experiment can be described thus: cell-based or functional assay.

B1: ARNT2-Strep (natural protein)
chain: not shown
In the case of B1, the “6xCME firefly luciferase reporter gene activity in HEK293T (dual luciferase; ARNT2-FLAG as partner; printed for ARNT and ARNT2 alike)” value is > 200 fold decrease relative to wildtype.

The values are drawn from publication PMC7987981, “Molecular characterisation of rare loss-of-function NPAS3 and NPAS4 variants identified in individuals with neurodevelopmental disorders” (Scientific Reports, 2021).
